Source: PMC8967877 (2022)
Square brackets hold non-standard residues; d marks the D form. Ends that are not written are not given here. pT = C[C@@H](OP(=O)(O)O)[C@H](N)C(=O)O

Tests used:
Experiment in all cases: FP
P101L PNKP (human) = P101L PNKP (human) (human, UniProt Q96T60-1 1-521, P101L)
[1] = target: Polynucleotide Kinase-Phosphatase (PNKP), human, wild-type (human, UniProt Q96T60-1 1-521)
wild-type murine PNKP = wild-type murine PNKP (murine, UniProt Q9JLV6 1-522)
wild-type murine PNKP, sequence (Q9JLV6 whole entry): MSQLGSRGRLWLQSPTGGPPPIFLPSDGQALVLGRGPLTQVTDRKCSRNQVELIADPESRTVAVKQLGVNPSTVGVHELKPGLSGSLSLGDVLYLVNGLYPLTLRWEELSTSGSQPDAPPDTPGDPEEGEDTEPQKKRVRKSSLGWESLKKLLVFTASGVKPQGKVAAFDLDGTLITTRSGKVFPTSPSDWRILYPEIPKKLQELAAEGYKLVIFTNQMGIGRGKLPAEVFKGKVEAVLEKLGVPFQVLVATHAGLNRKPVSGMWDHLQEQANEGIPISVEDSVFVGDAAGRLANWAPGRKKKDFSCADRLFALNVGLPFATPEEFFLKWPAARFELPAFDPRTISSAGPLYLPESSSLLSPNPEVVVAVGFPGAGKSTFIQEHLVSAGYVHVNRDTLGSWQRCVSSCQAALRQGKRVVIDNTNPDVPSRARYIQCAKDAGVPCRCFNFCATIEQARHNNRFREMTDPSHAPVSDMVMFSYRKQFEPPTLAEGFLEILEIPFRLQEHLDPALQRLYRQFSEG

Kd (P101L PNKP (human)): > 21 µM | Kd [1]: 1.08 µM | Kd (wild-type murine PNKP): 0.76 µM
Binder: GGYDES[pT]DEESKK (also: fluorescent dye label, position not given here) [fluorescent-dye labeled XRCC4-based phosphopeptide (GGYDES-pT-DEESKK)]
